Experimental data taken from patent KR20220139244A (dated 2022).
Read-outs that look alike come from different tables or passages of the source.

B1: No. 139 antibody (Full IgG) (antibody, V domains shown)
VH: QITLKESGPTLVKPTQTLTLTCSFSGFSLSTSGVGVGWIRQPPGKALEWLALIDWDDNKYHTTSLKTRLTISKDTSKNQVVLTMTNMDPVDTATYYCARIPGFLRYRNRYYYYGMDVWGQGTTVTVSS
VL: ELVLTQPPSVSAAPGQKVTISCSGSSSNIGNNYVSWYQQLPGTAPKLLIYDNNKRPSGIPDRFSGSKSGTSATLGITGLQTGDEADYYCGTWDSSLSAGVFGGGTELTVL
B2: No. 32 antibody (Full IgG; Table 3/4 numbering) (antibody, V domains shown)
VH: EVQLVQSGGGLIQPGGSLRLSCAASEFIVSSNYMTWVRQAPGKGLEWVSIIYPGGSTYYADSVKGRFTISRDNSKNTLYLRMNSLRAEDTAVYYCARDLPLTGTTLDYWGQGTLVTVSS
VL: not shown

Experiments:
[1] = target: T1, SARS-CoV-2 spike 501Y.V2 (pseudovirus of Tables 8/23) (SARS-CoV-2); experiment: cell-based or functional assay
[2] = target: SARS-CoV-2 spike 'D614 or G614' (pseudovirus of Table 23) (SARS-CoV-2, UniProt P0DTC2 14-1273); experiment: cell-based or functional assay
[3] = target: T1, SARS-CoV-2 spike 501Y.V2 (pseudovirus …); experiment: cell-based or functional assay; remark: listed apart in the source
[4] = target: T2, SARS-CoV-2 RBD protein, wild type (recombinant) (SARS-CoV-2, UniProt P0DTC2 319-541); experiment: BLI (Octet), IgG culture supernatant
[5] = target: T2, SARS-CoV-2 RBD protein, wild type …; experiment: BLI

Binder | IC50 [1] [mg/L] | IC50 [2] [mg/L] | IC50 [3] [mg/L] | Kd [4] [nM] | Kd [5] [nM] | koff [5] [s⁻¹] | kon [5] [M⁻¹ s⁻¹]
B1 | 0.33 | 0.00035 | 0.33 | – | – | – | –
B2 | – | 0.00325 | 0.06 | 0.147 | 0.132 | 0.000103 | 779000
